Measured values published in IntAct's records for PubMed 7664803.

B1: Proto-oncogene tyrosine-protein kinase LCK (Mus musculus), P06240 (parent)
chain: MGCVCSSNPEDDWMENIDVCENCHYPIVPLDSKISLPIRNGSEVRDPLVTYEGSLPPASPLQDNLVIALHSYEPSHDGDLGFEKGEQLRILEQSGEWWKAQSLTTGQEGFIPFNFVAKANSLEPEPWFFKNLSRKDAERQLLAPGNTHGSFLIRESESTAGSFSLSVRDFDQNQGEVVKHYKIRNLDNGGFYISPRITFPGLHDLVRHYTNASDGLCTKLSRPCQTQKPQKPWWEDEWEVPRETLKLVERLGAGQFGEVWMGYYNGHTKVAVKSLKQGSMSPDAFLAEANLMKQLQHPRLVRLYAVVTQEPIYIITEYMENGSLVDFLKTPSGIKLNVNKLLDMAAQIAEGMAFIEEQNYIHRDLRAANILVSDTLSCKIADFGLARLIEDNEYTAREGAKFPIKWTAPEAINYGTFTIKSDVWSFGILLTEIVTHGRIPYPGMTNPEVIQNLERGYRMVRPDNCPEELYHLMMLCWKERPEDRPTFDYLRSVLDDFFTATEGQYQPQP

What was measured:
cd4_mouse Cd4, P06332 = variants of: B1; conditions: with cd4_mouse Cd4, P06332
cd8a_mouse Cd8a, P01731 = variants of: B1; conditions: with cd8a_mouse Cd8a
Sequence of cd8a_mouse Cd8a, P01731 (P01731 whole entry): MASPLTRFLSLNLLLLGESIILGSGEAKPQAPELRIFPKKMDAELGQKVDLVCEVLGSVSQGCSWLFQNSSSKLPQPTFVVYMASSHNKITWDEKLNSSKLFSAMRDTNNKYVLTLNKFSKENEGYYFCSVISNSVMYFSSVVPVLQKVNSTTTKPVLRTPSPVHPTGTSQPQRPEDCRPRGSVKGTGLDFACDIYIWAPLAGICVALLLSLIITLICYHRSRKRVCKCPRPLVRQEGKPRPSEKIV

Sequence of cd4_mouse Cd4, P06332 (P06332 whole entry): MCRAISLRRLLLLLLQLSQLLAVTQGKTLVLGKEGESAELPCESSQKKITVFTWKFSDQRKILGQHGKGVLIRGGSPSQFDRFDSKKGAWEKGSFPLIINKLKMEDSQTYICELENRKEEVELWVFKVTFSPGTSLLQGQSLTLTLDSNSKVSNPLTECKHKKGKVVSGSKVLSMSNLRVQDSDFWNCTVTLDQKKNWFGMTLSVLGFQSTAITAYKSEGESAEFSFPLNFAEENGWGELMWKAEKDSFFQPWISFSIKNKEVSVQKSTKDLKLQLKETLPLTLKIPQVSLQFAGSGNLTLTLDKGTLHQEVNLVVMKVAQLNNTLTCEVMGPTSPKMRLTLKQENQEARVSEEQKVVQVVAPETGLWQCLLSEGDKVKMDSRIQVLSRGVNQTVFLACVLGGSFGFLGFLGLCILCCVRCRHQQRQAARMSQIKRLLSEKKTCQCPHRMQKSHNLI

Variant	effect of a mutation on the interaction (cd4_mouse Cd4, P06332)	effect of a mutation on the interaction (cd8a_mouse Cd8a, P01731)
C20A	decreasing interaction	decreasing interaction
C23A	decreasing interaction	decreasing interaction
